Measured values taken from patent US20070218504A1, “HUMAN LEPTIN-DERIVED POLYPEPTIDES AND USES THEREOF” (UNIVERSITY OF PITTSBURGH, priority 2006, published 2007).
“Also recorded” adds a separate entry of the source. Each block holds one molecule with its values, some of them ahead of it.

Assays:
[1] = molecular target: T1, human CRP (Homo sapiens, UniProt P02741); test: Polypeptide blocking of human CRP inhibition of leptin-stimulated STAT3 tyrosine phosphorylation in HEK-293 cells over-expressing OB-Rb; type: cell-based; conditions: for effect of polypeptide by itself on STAT phosphorylation: control, polypeptide alone; for restoration of leptin-stimulated STAT3 activation in presence of human CRP, Example 8 comparison: human CRP 8 μg/ml, human leptin 2 nM, 1 hour pre-incubation, up to 0.8 μM (800 nM)
T1 construct: purchased CHEMICON or EMD Biosciences
T1 sequence (P02741 19-224): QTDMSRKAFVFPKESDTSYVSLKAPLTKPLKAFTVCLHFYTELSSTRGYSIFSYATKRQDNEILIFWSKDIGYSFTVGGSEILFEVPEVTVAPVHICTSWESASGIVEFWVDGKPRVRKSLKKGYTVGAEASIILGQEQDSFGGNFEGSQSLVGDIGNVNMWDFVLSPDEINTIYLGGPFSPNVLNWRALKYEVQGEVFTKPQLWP
Protocol: In the in vitro experiment, each of these polypeptide was pre-incubated with human CRP for 30 minutes before being mixed with human leptin for an additional 45 minutes. The resultant mixture was then added to the HEK-293 cells over-exprssing the long form leptin receptors, OB-Rb. After a 30-minute incubation, the cells were harvested in a protein extraction buffer (18). The signaling of leptin in the cells, measured by its ability to stimulate tyrosine phosphorylation on STAT3 in a western blot assay, was evaluated (see FIGS. 8, 9, 10 for polypeptides B, C1 and E, respectively).
Pursuant to an in vitro protocol similar to that described in Example 6, a hexamer disclosed in U.S. Pat. No. 6,777,388, NH2—S—C—H-L-P—W—COOH (SEQ ID NO:18), was pre-incubated with human CRP (8 μg/ml) and human leptin (2 nM) for 1 hour. The resultant mixture then was added to HEK-293 cells that over-expressed the long form leptin receptor, OB—Rb. After a 30-minute incubation, the cells were harvested in a protein extraction buffer. To evaluate signaling of human leptin in the cells, tyrosine phosphorylation on STAT3 was measured in a western blot assay.

[2] = test system: ob/ob mice; test: Co-infusion of polypeptide E with human CRP and leptin through mini-osmotic pumps into ob/ob mice; type: in vivo, mouse; conditions: for restoration of satiety and weight-reducing effects of human leptin (food intake, body weight): Pep-E 24 or 48 μg/day/mouse with human CRP 48 μg/day/mouse and leptin 12 μg/day/mouse
Protocol: FIG. 11. […] Infusion dosages for human CRP and leptin were 48 μg/day/mouse and 12 μg/day/mouse, respectively. The infusion rate for Pep-E (P) was 24 μg/day/mouse (medium dosage, “m”) and 48 μg/day/mouse (high dosage, “h”). Food-intake (A and C) and body weight (B and D) were monitored daily throughout the infusion. The arrows in A-D indicate the day of surgery. At the end of infusion, blood samples were collected for the measurement of blood-glucose, human CRP, and human leptin. The serum concentrations of human CRP and human leptin were 0.85±0.1 μg/ml and 18 ng±2 ng/ml, respectively. […] Also shown is glucose concentration from mice infused with human CRP and leptin but not with Pep-E.
In the in vivo experiment, polypeptide E was co-infused through mini-osmotic pumps with human CRP and leptin into the ob/ob mice. Food intake in the period of 24 hours and body weight were followed during the infusion period (FIGS. 11A-11D).

[3] = molecular target: long-form human leptin receptor, OB-Rb (human) (UniProt P48357); test: 125I-human leptin binding to HEK293 cells stably transfected with human OB-Rb
[4] = molecular target: T2, rat C-reactive protein (rat, UniProt P48199 20-230); test: rat serum on mouse leptin-Sepharose affinity column; eluted band identified by MALDI-TOF
T2 construct: mature; also called rat CRP; rat SLIP-1
T2 sequence (looked up): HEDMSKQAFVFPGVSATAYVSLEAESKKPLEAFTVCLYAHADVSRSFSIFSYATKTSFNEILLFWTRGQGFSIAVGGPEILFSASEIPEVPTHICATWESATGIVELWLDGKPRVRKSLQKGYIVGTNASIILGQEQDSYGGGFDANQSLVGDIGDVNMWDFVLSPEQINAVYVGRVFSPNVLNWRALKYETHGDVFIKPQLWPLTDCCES
Protocol: Retained material was eluted with an acidic glycine solution, and the eluate was immediately neutralized in a Tris-buffer (50 mM, pH=9.5).
The mass-spec assay was performed on Thermo Finnigan LTQ mass spectrometer by CTO-BIO Services (Rockville, Md.). Data analysis was carried out with the Turbo-Sequest software.

[5] = molecular target: T3, human leptin (human, UniProt P41159 22-167, 125I-labelled (Iodogen method) in the receptor binding assay of Example 3); test: human CRP pre-incubated with 125I-human leptin (~2 ng/ml); inhibition of leptin binding to OB-Rb on HEK293 cells
T3 construct: Recombinant human leptin from AF Parlow, NHPP; also called recombinant human leptin
Protocol: After 10-minute incubation at room temperature, the reaction was stopped with 100 μl 0.1% trifluoroacetic acid (TFA). The reaction mixture was immediately purified by reverse-phase HPLC. The separation employed a 5-minute isocratic step at 20% eluant B in A, followed by two consecutive 30 min linear gradients from 20 to 50%, then from 50 to 60% eluant B in A (where eluant A is water containing 0.1% TFA and eluant B is acetonitrile containing 0.1% TFA) at a flow rate of 1.5 ml/min. […] The incubation would last for 3 hour at 4° C. before the media was aspirated and the cells were dissolved in 0.1N NaOH for scintillation counting.

[6] = test system: insulin-stimulated PI3-kinase activity; test: Insulin-stimulated PI3-kinase activity in 3T3-L1 adipocytes; type: cell-based
[7] = molecular target: T4, mouse leptin (Mus musculus, UniProt P41160); test: Immuno-precipitation assay of direct binding of rat CRP and mouse leptin; conditions: leptin/CRP mixture and rat serum; Western blot with anti-CRP
T4 construct: purchased AF Parlow of NHPP, Torrance, CA
Protocol: To explore a physical interaction between CRP and leptin, the direct binding of these proteins was determined by an immuno-precipitation assay. Rat CRP was purified from fresh rat serum to >95% purity employing a previously established affinity-purification protocol (20). […] The purified human- and rat-CRP proteins were pre-mixed with recombinant human and mouse leptin, respectively, before addition of antibodies specific for human- and mouse-leptin. The concentrations of CRP and leptin in the precipitation reaction were all within the physiological ranges that have been observed in humans or rats (11 & 15). In parallel experiments, recombinant leptin also was pre-mixed with human- or rat-serum to allow for direct interaction prior to immuno-precipitation. The protein precipitates obtained were subjected to Western blot assays using specific anti-CRP antibodies.

[8] = test system: tyrosine phosphorylation of STAT3; test: Leptin-induced tyrosine phosphorylation of STAT3 in HEK293 cells over-expressing OB-Rb in the presence of CRP (Western blot); type: cell-based, human; conditions: murine/mouse leptin; HEK293 OB-Rb
Protocol: To determine if the interaction between CRP and leptin dampens the cellular actions of leptin, the ability of leptin to stimulate tyrosine phosphorylation of STAT3 and PI3-kinase activity was assessed in the presence of CRP in vitro. HEK293 cells over-expressing OB-Rb were serum starved for 2 hours before addition of leptin and CRP (CHEMICON or EMD Biosciences). Leptin, in the presence or absence of CRP, was pre-incubated in μ-MEM (with additional 1 mM Ca^2+) for 30 minutes at 37° C. before being applied to the cells. After a 30-minute incubation with leptin, the cells were harvested in lysis buffer (18). The resultant protein extract was subjected to a Western blot analysis using an anti-phospho-STAT3 specific antibody (Cell Signaling, Beverly, Mass.). For studies involving primary hypothalamic neurons, the hypothalamus from rats was surgically isolated immediately after euthanasia, and placed in the DMEM for incubation with leptin in the presence or absence of CRP.

long-form human leptin receptor, OB-Rb (human), sequence (P48357 22-1165): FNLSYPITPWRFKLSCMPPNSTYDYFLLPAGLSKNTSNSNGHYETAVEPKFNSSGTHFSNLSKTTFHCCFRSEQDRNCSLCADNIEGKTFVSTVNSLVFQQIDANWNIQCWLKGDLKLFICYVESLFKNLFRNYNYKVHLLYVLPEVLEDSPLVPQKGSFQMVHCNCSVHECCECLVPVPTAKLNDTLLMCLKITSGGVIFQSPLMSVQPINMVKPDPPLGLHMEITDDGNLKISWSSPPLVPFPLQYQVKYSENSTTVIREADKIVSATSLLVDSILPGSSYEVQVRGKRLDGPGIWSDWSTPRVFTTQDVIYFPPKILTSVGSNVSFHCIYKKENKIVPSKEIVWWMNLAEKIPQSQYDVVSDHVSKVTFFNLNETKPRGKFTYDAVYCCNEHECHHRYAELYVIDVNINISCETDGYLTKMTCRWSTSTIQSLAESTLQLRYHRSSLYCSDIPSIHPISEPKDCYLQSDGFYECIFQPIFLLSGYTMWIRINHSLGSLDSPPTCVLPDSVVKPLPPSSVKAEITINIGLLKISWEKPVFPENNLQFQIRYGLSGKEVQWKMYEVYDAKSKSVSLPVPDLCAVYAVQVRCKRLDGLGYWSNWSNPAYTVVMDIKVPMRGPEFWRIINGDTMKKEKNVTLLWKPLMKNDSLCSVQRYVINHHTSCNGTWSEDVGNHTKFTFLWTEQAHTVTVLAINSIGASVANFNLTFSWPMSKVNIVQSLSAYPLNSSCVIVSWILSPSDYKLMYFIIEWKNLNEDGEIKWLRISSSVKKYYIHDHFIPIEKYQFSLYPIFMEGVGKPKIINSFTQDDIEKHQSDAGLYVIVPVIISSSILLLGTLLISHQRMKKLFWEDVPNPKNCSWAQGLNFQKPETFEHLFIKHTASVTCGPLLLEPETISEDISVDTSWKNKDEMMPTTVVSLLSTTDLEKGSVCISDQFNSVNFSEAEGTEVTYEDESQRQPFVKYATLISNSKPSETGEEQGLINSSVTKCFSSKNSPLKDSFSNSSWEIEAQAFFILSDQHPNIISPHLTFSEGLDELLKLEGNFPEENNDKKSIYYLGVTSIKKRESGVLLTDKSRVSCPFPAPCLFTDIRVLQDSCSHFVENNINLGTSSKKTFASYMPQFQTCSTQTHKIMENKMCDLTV

effect of polypeptide by itself on STAT phosphorylation ([1]; listed as Peptide-E): did not induce any changes
restoration of leptin-stimulated STAT3 activation in presence of human CRP, Example 8 comparison [1]: able to restore
restoration of leptin-stimulated STAT3 activation in presence of human CRP, Example 8 comparison ([1]; listed as Peptide-E): blocked the inhibitory effect
Molecule: LAFSKSCHLPWASGLETLDSLGGVLEA (listed as Homo sapiens) [polypeptide E, chemically synthesized human leptin-derived polypeptide, residues 111 to 137]
effect of polypeptide by itself on STAT phosphorylation [1]: did not induce any changes; also recorded: does not have any effect
blocking of the inhibitory effect of human CRP on leptin signaling (STAT3 tyrosine phosphorylation) ([1]; polypeptide pre-incubated with human CRP 30 minutes, then human leptin 45 minutes): able to block the inhibitory effect of human CRP and to restore leptin signaling
restoration of satiety and weight-reducing effects of human leptin (food intake, body weight) [2]: able to restore both of these functions
restoration of satiety and weight-reducing effects of human leptin (food intake, body weight) ([2]; listed as Peptide-E): restored the physiological effects of human leptin
restoration of effect of human leptin on blood glucose ([2]; end of infusion, high dosage Pep-E): able to restore the beneficial effect

Kd [3]: 1 nM
Molecule: human leptin (from UniProt P41159 22-167) (ligand)

binding result [4]: binds
B1: mouse leptin (ligand, UniProt P41160 22-167, looked up)
chain: VPIQKVQDDTKTLIKTIVTRINDISHTQSVSAKQRVTGLDFIPGLHPILSLSKMDQTLAVYQQVLTSLPSQNVLQIANDLENLRDLLHLLAFSKSCSLPQTSGLQKPESLDGVLEASLYSTEVVALSRLQGSLQDILQQLDVSPEC
modifications: 125I-labelled in the receptor binding assay of FIG. 4B
notes: also called murine-leptin; recombinant mouse leptin

IC50 [5]: ~0.08 µg/mL
molecular ratio (CRP:leptin) at the IC50 [5]: 5.8
B2: human C-reactive protein (other, UniProt P02741 19-224, looked up)
chain: T1 sequence (P02741 19-224)
notes: also called human CRP; CRP

co-precipitation of CRP with anti mouse-leptin antibody [7]: could bring down rat CRP
B3: rat CRP: rat C-reactive protein purified from fresh rat serum to >95% purity (protein)
chain: T2 sequence (looked up)
effect on insulin-stimulated PI3-kinase activity [6]: did not block
effect of CRP on murine leptin-induced tyrosine phosphorylation of STAT3 [8]: attenuating effects; also recorded: attenuate
